The chains are these.
B1: NLV2 TCR alpha chain (CDR3α only) (parent)
chain: AGPMKTSYDKVI

Variants of B1 are the subject of one assay. Briefly: T-Switch: Jurkat TCRβ−/− cells expressing a CDR3 saturation-mutagenesis library, stained with two peptide-HLA-A*02:01 tetramers (original and novel peptide) plus anti-CD3, FACS-sorted into four gates, gDNA sequenced. The note with it: with both tetramers (double-negative gate, binds neither): HLA-A*02:01 with … and with …, tetramers 1 µg/mL, 30 min on ice, SP, DP and SW gates expanded about 10 days between rounds ('two to three rounds of selection' in the Methods), gate DN: OPPOSITE: higher = more of the variant in the gate that binds neither peptide = LESS binding (or no expression; inferred). Fold enrichment of the CDR3 variant in one FACS gate of a two-tetram, unresolved parent, parent is a CDR3 fragment, scale: fold enrichment, numbering: sequential-on-construct, sequence starts at 1.
For the variant […] (CDR3 as printed); K5A derived by comparing it with the table's wild-type CDR3 AGPMKTSYDKVI, the enrichment was found to be 0.428.

As to […] (CDR3 as printed); D9R derived by comparing it with the table's wild-type CDR3 AGPMKTSYDKVI, the enrichment came out at 1.08.

As for […] (CDR3 as printed); A1V derived by comparing it with the table's wild-type CDR3 AGPMKTSYDKVI, the enrichment worked out at 0.809.

Regarding […] (CDR3 as printed); D9E derived by comparing it with the table's wild-type CDR3 AGPMKTSYDKVI, the enrichment came to 1.03.

Turning to […] (CDR3 as printed); D9M derived by comparing it with the table's wild-type CDR3 AGPMKTSYDKVI, the enrichment worked out at 0.931.

For […] (CDR3 as printed); A1D derived by comparing it with the table's wild-type CDR3 AGPMKTSYDKVI, the enrichment worked out at 0.746.

Regarding […] (CDR3 as printed); K5R derived by comparing it with the table's wild-type CDR3 AGPMKTSYDKVI, the enrichment was found to be 1.15.

As for […] (CDR3 as printed); K5L derived by comparing it with the table's wild-type CDR3 AGPMKTSYDKVI, the enrichment amounted to 0.992.

For […] (CDR3 as printed); M4E derived by comparing it with the table's wild-type CDR3 AGPMKTSYDKVI, the enrichment is 0.637.

For […] (CDR3 as printed); M4D derived by comparing it with the table's wild-type CDR3 AGPMKTSYDKVI, the enrichment was 0.825.

As to […] (CDR3 as printed); D9G derived by comparing it with the table's wild-type CDR3 AGPMKTSYDKVI, the enrichment was found to be 1.23.

With […] (CDR3 as printed); K5P derived by comparing it with the table's wild-type CDR3 AGPMKTSYDKVI, the enrichment was 0.356.

[…] (CDR3 as printed); M4F derived by comparing it with the table's wild-type CDR3 AGPMKTSYDKVI: the enrichment turned out to be 1.34.

For the variant […] (CDR3 as printed); A1P derived by comparing it with the table's wild-type CDR3 AGPMKTSYDKVI, the enrichment was determined as 0.883.

Take […] (CDR3 as printed); A1W derived by comparing it with the table's wild-type CDR3 AGPMKTSYDKVI: the enrichment was found to be 0.77.

With […] (CDR3 as printed); G2N derived by comparing it with the table's wild-type CDR3 AGPMKTSYDKVI, the enrichment was 0.848.

Regarding […] (CDR3 as printed); K10Y derived by comparing it with the table's wild-type CDR3 AGPMKTSYDKVI, the enrichment is 0.393.

Take […] (CDR3 as printed); A1L derived by comparing it with the table's wild-type CDR3 AGPMKTSYDKVI: the enrichment came out at 0.94.

Consider […] (CDR3 as printed); G2C derived by comparing it with the table's wild-type CDR3 AGPMKTSYDKVI, for which the enrichment worked out at 0.956.

For the variant […] (CDR3 as printed); D9K derived by comparing it with the table's wild-type CDR3 AGPMKTSYDKVI, the enrichment was determined as 0.961.

Take […] (CDR3 as printed); D9C derived by comparing it with the table's wild-type CDR3 AGPMKTSYDKVI: the enrichment was found to be 0.717.

[…] (CDR3 as printed); I12L derived by comparing it with the table's wild-type CDR3 AGPMKTSYDKVI: the enrichment amounted to 0.907.

Consider […] (CDR3 as printed); K10Q derived by comparing it with the table's wild-type CDR3 AGPMKTSYDKVI, for which the enrichment was 0.706.

[…] (CDR3 as printed); G2Q derived by comparing it with the table's wild-type CDR3 AGPMKTSYDKVI: the enrichment is 0.677.

Consider […] (CDR3 as printed); A1Q derived by comparing it with the table's wild-type CDR3 AGPMKTSYDKVI, for which the enrichment came out at 0.89.

The assay is the same for the next values; noted with them: with both tetramers (double-positive gate): HLA-A*02:01 with … and with …, tetramers 1 µg/mL, 30 min on ice, SP, DP and SW gates expanded about 10 days between rounds ('two to three rounds of selection' in the Methods), gate DP: higher = more of the variant in the gate that binds both peptides. Fold enrichment of the CDR3 variant in one FACS gate of a two-tetramer stain. SP/DP/SW gates were expanded and re-sorted bef, unresolved parent, parent is a CDR3 fragment, scale: fold enrichment, numbering: sequential-on-construct, sequence starts at 1.
On to […] (CDR3 as printed); K5A derived by comparing it with the table's wild-type CDR3 AGPMKTSYDKVI, for which the enrichment is 0.

With […] (CDR3 as printed); D9R derived by comparing it with the table's wild-type CDR3 AGPMKTSYDKVI, the enrichment came out at 0.

Consider […] (CDR3 as printed); A1V derived by comparing it with the table's wild-type CDR3 AGPMKTSYDKVI, for which the enrichment was 0.

On to […] (CDR3 as printed); D9E derived by comparing it with the table's wild-type CDR3 AGPMKTSYDKVI, for which the enrichment turned out to be 0.

On to […] (CDR3 as printed); D9M derived by comparing it with the table's wild-type CDR3 AGPMKTSYDKVI, for which the enrichment is 0.

In the case of […] (CDR3 as printed); A1D derived by comparing it with the table's wild-type CDR3 AGPMKTSYDKVI, the enrichment turned out to be 0.

As for […] (CDR3 as printed); K5R derived by comparing it with the table's wild-type CDR3 AGPMKTSYDKVI, the enrichment came to 0.

Turning to […] (CDR3 as printed); K5L derived by comparing it with the table's wild-type CDR3 AGPMKTSYDKVI, the enrichment came out at 0.

Regarding […] (CDR3 as printed); M4E derived by comparing it with the table's wild-type CDR3 AGPMKTSYDKVI, the enrichment was 0.

In the case of […] (CDR3 as printed); M4D derived by comparing it with the table's wild-type CDR3 AGPMKTSYDKVI, the enrichment came out at 0.

In the case of […] (CDR3 as printed); D9G derived by comparing it with the table's wild-type CDR3 AGPMKTSYDKVI, the enrichment turned out to be 0.

Turning to […] (CDR3 as printed); K5P derived by comparing it with the table's wild-type CDR3 AGPMKTSYDKVI, the enrichment came to 0.

For the variant […] (CDR3 as printed); M4F derived by comparing it with the table's wild-type CDR3 AGPMKTSYDKVI, the enrichment turned out to be 0.

[…] (CDR3 as printed); A1P derived by comparing it with the table's wild-type CDR3 AGPMKTSYDKVI: the enrichment was found to be 0.

As to […] (CDR3 as printed); A1W derived by comparing it with the table's wild-type CDR3 AGPMKTSYDKVI, the enrichment was determined as 0.

[…] (CDR3 as printed); G2N derived by comparing it with the table's wild-type CDR3 AGPMKTSYDKVI: the enrichment was 0.

For the variant […] (CDR3 as printed); K10Y derived by comparing it with the table's wild-type CDR3 AGPMKTSYDKVI, the enrichment is 0.

As for […] (CDR3 as printed); A1L derived by comparing it with the table's wild-type CDR3 AGPMKTSYDKVI, the enrichment is 0.

As for […] (CDR3 as printed); G2C derived by comparing it with the table's wild-type CDR3 AGPMKTSYDKVI, the enrichment worked out at 0.

Regarding […] (CDR3 as printed); D9K derived by comparing it with the table's wild-type CDR3 AGPMKTSYDKVI, the enrichment was 0.

[…] (CDR3 as printed); D9C derived by comparing it with the table's wild-type CDR3 AGPMKTSYDKVI: the enrichment was found to be 0.

With […] (CDR3 as printed); I12L derived by comparing it with the table's wild-type CDR3 AGPMKTSYDKVI, the enrichment worked out at 0.

As for […] (CDR3 as printed); K10Q derived by comparing it with the table's wild-type CDR3 AGPMKTSYDKVI, the enrichment stood at 0.

For […] (CDR3 as printed); G2Q derived by comparing it with the table's wild-type CDR3 AGPMKTSYDKVI, the enrichment stood at 0.

For […] (CDR3 as printed); A1Q derived by comparing it with the table's wild-type CDR3 AGPMKTSYDKVI, the enrichment came to 0.
